pKd: −log10 of the molar value.
Experiments:
Assay in all cases: AUC
[1] = target: human nectin-1 ectodomain (D1-D3) (human) (UniProt Q15223)
[2] = target: human nectin-3 ectodomain (D1-D3) (human) (UniProt Q9NQS3)
[3] = target: mouse nectin-3 ectodomain (D1-D3 with part of the stalk) (mouse) (UniProt Q9JLB9)

Chain of human nectin-3 ectodomain (D1-D3) (Q9NQS3 58-359): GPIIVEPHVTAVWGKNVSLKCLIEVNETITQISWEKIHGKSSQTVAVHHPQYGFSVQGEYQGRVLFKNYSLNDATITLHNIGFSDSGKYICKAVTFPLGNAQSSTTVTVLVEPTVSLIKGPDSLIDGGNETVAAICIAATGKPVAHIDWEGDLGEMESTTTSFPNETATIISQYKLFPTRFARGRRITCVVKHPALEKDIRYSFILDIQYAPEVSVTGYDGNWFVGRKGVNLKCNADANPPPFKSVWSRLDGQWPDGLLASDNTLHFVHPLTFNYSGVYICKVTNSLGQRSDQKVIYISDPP
Chain of mouse nectin-3 ectodomain (D1-D3 with part of the stalk) (Q9JLB9 58-401): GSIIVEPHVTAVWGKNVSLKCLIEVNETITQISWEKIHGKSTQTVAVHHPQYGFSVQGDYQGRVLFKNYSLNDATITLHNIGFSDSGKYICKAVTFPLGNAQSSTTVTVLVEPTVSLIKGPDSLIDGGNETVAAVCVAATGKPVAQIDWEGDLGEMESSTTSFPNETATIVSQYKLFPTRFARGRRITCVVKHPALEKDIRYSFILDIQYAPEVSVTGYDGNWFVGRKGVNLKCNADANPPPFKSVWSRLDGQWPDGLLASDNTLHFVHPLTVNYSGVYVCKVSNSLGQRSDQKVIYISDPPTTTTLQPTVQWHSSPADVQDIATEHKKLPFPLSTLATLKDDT
Chain of human nectin-1 ectodomain (D1-D3) (human) (Q15223 31-337): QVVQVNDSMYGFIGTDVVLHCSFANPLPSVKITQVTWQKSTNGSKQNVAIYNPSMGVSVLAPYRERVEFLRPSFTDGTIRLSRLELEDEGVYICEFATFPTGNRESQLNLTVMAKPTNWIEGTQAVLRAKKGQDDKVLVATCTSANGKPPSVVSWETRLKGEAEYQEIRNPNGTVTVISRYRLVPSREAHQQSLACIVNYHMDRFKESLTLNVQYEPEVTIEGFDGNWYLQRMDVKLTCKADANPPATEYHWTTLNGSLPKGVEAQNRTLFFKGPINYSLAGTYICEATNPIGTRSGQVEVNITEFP

| pKd [3] | stoichiometry N [3] | Substance | stoichiometry N [1] | pKd [2] | stoichiometry N [2] |
| --- | --- | --- | --- | --- | --- |
|  |  | human nectin-3 ectodomain (D1-D3) (from UniProt Q9NQS3 58-359) (domain or fragment) | 1 | 3.64 | 2 |
| 3.91 | 2 | mouse nectin-3 ectodomain (D1-D3 with part of the stalk) (from UniProt Q9JLB9 58-401) (domain or fragment) |  |  |  |
